# Experiments:
# [1] = target: β-catenin (mouse (endogenous in MEFs)) (UniProt Q02248); test: FRET or BRET; FLIM-FRET on fixed, immunostained mitotic cells with normal A-type lamins (lmna wt MEFs); SC-35 donor (Cy3), β-catenin acceptor (Cy5); E ≥ 25% taken as interaction
# [2] = target: phosphorylated form of RNA polymerase II (CTD repeat YSPTSPS, phospho S5), in mouse embryonic fibroblasts (mouse (endogenous in MEFs)) (UniProt P08775); test: FRET or BRET; FLIM-FRET on fixed, immunostained interphase lmna wt cells (MEFs); SC-35 donor (secondary antibody Cy3), RNA polymerase II pS5 acceptor (secondary antibody Cy5); E ≥ 25% taken as interaction
# [3] = target: phosphorylated form of RNAP II in both wt MEFs and HeLa cells; test: FRET or BRET; FLIM-FRET on wt MEFs or HeLa cells transiently transfected with EGFP-SRSF2 (donor), fixed and immunostained for lamin A or RNA polymerase II pS5 (acceptor, secondary antibody Alexa Fluor 594); E ≥ 25% taken as interaction
# EGFP-tagged SRSF2, sequence (Q01130 whole entry): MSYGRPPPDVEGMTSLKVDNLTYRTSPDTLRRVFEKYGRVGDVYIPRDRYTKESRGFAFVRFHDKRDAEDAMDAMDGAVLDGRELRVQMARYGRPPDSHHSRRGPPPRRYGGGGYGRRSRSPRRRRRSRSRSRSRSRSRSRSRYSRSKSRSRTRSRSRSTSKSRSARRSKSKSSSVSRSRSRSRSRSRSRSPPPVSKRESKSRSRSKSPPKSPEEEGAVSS
# β-catenin (mouse (endogenous in MEFs)), sequence (Q02248 whole entry): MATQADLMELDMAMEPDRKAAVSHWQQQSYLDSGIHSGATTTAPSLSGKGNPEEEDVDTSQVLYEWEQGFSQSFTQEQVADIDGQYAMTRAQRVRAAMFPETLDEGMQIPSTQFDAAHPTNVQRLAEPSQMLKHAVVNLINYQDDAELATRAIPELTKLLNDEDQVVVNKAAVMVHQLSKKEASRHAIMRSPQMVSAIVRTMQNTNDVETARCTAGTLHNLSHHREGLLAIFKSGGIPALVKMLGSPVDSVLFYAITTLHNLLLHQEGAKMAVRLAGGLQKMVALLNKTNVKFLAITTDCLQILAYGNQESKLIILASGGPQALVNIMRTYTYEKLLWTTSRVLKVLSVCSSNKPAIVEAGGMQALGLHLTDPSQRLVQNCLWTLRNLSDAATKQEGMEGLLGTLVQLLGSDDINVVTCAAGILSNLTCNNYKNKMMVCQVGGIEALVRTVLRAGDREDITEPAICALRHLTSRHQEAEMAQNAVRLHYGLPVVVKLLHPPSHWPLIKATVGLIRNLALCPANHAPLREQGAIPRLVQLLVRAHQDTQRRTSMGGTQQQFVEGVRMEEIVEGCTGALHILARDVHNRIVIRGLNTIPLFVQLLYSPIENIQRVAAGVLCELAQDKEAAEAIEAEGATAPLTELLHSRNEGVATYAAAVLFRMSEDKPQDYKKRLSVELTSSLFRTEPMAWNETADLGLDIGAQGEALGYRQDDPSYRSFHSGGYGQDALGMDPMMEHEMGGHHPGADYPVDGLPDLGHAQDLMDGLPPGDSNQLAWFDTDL
FRET efficiency [1] [%],FRET efficiency [2] [%],FRET efficiency [3] [%],Substance
36.5,75,–,"SC-35 protein (serine/arginine-rich splicing factor 2, encoded by the SRSF2 gene) (from UniProt Q62093 1-221) (natural protein)"
–,–,27 to 29,EGFP-tagged SRSF2 (from UniProt Q01130 1-221) (natural protein)
